Our source for the Cytotoxicity (specific lysis of peptide-pulsed splenocytes, in vitro, 3 days) and Ratio of MOG/OVA pulsed APC (in vivo cytotoxicity, spleen after 48 hours) (ratio of MOG/OVA pulsed APC) values is patent US20210061875A1.

Assay [1] addresses myelin oligodendrocyte glycoprotein 35-55 peptide (MOG35-55) in the context of I-A(b) (mouse; murine) (UniProt P14434).
In assay [2] the target is ovalbumin 323-329 peptide (OVA323-339) in the context of I-A(b) (murine) (UniProt P01012).
Assay [3] has as its target myelin oligodendrocyte glycoprotein 35-55 peptide (MOG35-55) in the context of I-A(b) (mouse; murine) (UniProt P14434). This is another data set of the same source.
For assay [4], the target named is ovalbumin 323-329 peptide (OVA323-339) in the context of I-A(b) (murine) (UniProt P01012). This is another data set of the same source.

On to 2D2 TCR, for which the Cytotoxicity (specific lysis of peptide-pulsed splenocytes, in vitro, 3 days) stood at 17% in assay [1] and 3% in assay [2]. Moreover, in assay [3], the Ratio of MOG/OVA pulsed APC (in vivo cytotoxicity, spleen after 48 hours) (ratio of MOG/OVA pulsed APC) was 0.7.

For the substance OT-II TCR, the Cytotoxicity (specific lysis of peptide-pulsed splenocytes, in vitro, 3 days) stood at 4% in assay [1] and 32% in assay [2]. In assay [4], the Ratio of MOG/OVA pulsed APC (in vivo cytotoxicity, spleen after 48 hours) (ratio of MOG/OVA pulsed APC) was found to be 6.2.
